Patent US20160060347A1 (MorphoSys, published 2016)

Key:
human CXCR2 [1] = target: T1, human CXCR2 (human, UniProt P25025 1-360); assay: FACS, CXCR2 CHO Flp-In cells, IgG1
T1 construct: Expressed on Flp-In CHO cells (FACS, Fab-ZAP, ADCC, CDC) or on bought PathHunter CHO cells (beta-arrestin assay); the construct in the PathHunter cells is not described; also called chemokine receptor CXCR2; CXCR2 CHO Flp-In cells
T1 sequence: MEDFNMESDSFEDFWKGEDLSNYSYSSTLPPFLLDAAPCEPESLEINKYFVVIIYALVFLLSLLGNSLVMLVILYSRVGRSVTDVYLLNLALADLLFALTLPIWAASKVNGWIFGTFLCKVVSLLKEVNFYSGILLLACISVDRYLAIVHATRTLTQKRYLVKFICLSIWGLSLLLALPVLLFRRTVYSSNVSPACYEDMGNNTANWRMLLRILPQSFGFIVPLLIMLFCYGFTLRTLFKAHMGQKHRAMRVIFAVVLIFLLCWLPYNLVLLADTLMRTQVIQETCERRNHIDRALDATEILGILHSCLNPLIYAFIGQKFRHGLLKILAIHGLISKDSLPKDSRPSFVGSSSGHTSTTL
Method: (§1) Human CXCR2-expressing Flp-In™ CHO cells were harvested at ˜80% confluence washed once with PBS (Gibco, Cat #14190-094) and detached using Versene (Invitrogen, Cat #15040-033). Subsequently, cells were counted and centrifuged at 250×g for 5 min at 4° C. Afterwards, cells were diluted in Superblock (Thermo Fisher Perbio Science, Cat #37515) to a cell concentration of 2E+05-1E+06/mL and 100 μL/well were transferred to 96-well microtiter plate (Nunc, Cat#163320). Cells were once centrifuged, supernatant discarded and antibodies added at 1 μg/mL (unless stated otherwise), incubated for 1 h at 4° C. and washed twice with FACS buffer (PBS/3% FCS/0.02% NaN3). Binding of anti-CXCR2 antibodies was detected by incubation of Phycoerythrin-conjugated anti-human IgG (Dianova, Cat #109-116-097) for 1 h at 4° C. Samples were subsequently measured using FACS Array (Becton Dickinson).

[2] = target: T2, N-terminal peptide aa1-48, BSA-coupled (human; bovine, coupled to carrier protein BSA; C-terminal cysteine introduced to enable coupling); assay: ELISA, coated peptide-BSA, IgG1
T2 construct: also called CXCR2 aa1-48 BSA
T2 sequence (P02769 25-607 limits assumed): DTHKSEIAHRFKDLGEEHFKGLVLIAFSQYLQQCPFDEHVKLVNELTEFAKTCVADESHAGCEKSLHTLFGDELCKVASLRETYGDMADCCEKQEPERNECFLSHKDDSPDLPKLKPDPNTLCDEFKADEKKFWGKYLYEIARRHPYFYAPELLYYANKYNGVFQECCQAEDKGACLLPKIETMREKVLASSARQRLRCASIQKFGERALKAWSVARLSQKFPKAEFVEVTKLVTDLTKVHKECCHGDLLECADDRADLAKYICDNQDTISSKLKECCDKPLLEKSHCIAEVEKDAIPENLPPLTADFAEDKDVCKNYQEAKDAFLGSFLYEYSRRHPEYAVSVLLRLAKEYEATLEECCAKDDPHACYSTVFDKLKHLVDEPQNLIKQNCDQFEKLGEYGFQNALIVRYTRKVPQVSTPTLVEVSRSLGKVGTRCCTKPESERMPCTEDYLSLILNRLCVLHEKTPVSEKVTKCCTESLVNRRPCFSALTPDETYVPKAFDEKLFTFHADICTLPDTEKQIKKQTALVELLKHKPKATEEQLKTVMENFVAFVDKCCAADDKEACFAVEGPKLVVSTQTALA
Method: (§2) 384-well Maxisorp plates (Nunc; Cat. #460518) were coated with respective CXCR2 and control peptides coupled either to BSA or Transferrin (TRF) at 1-5 μg/mL and incubated o/n at 4° C. […] After three washing steps, antibodies were added at 5-10 μg/mL and titrated in some experiments. Antibodies were incubated 1 h at room temperature and plates were subsequently washed. Binding of anti-CXCR2 antibodies was detected by using alkaline phosphatase-conjugated anti-human IgG, (Dianova, Cat #109-055-097). AttoPhos fluorescence substrate (Roche, Cat #1484281) was added according to instructions of the manufacturer and fluorescence was measured (excitation at 430 nm, emission at 535 nm) using a microplate reader.

[3] = target: T3, hu_CXCR2_N-term (1-17)-BSA (human; bovine, coupled to carrier protein BSA; C-terminal cysteine introduced to enable coupling); assay: ELISA, coated peptide-BSA, IgG1
T3 construct: Synthetic linear peptide chemically coupled to the carrier; also called CXCR2_aa1-17_BSA; CXCR2 aa1-17 BSA
T3 sequence (P02769 25-607 limits assumed): as above
Method: as §2

[4] = target: T4, ECL3 peptide aa273-295, BSA-coupled (human; bovine, coupled to carrier protein BSA; C-terminal cysteine introduced to enable coupling); assay: ELISA, coated peptide-BSA, IgG1
T4 construct: also called CXCR2 aa273-295 BSA; peptides representing the extracellular domain 3
T4 sequence (peptide, as listed by the source limits assumed, chain 1 of 2): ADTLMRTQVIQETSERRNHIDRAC
T4 sequence (P02769 25-607 limits assumed, chain 2 of 2): as the sequence (P02769 25-607 limits assumed) above
Method: as §2

[5] = target: T2, N-terminal peptide aa1-48, BSA-coupled; assay: ELISA, coated peptide-BSA, IgG
Method: as §2

[6] = target: T3, hu_CXCR2_N-term (1-17)-BSA; assay: ELISA, coated peptide-BSA, IgG
Method: as §2

[7] = target: T4, ECL3 peptide aa273-295, BSA-coupled; assay: ELISA, coated peptide-BSA, IgG
Method: as §2

human CXCR2 [8] = target: T1, human CXCR2; assay: FACS, CXCR2 CHO Flp-In cells, IgG
Method: as §1

Measured: binding result

B1: CX2-Mab #1.2 (antibody, IgG1, V domains shown)
VH: QVQLVQSGAEVKKPGSSVKVSCKASGGTFSSYAISWVRQAPGQGLEWMGGIIPIVGEAKYAQKFQGRVTITADESTSTAYMELSSLRSEDTAVYYCARDSSGYDGYYAFAYWGQGTQVTVSS
VL: DIVLTQPPSVSGAPGQRGTISCSGSSSNIGSSSVNWYQQLPGTAPKLLIYRNNQRPSGVPDRFSGSKSGTSASLAITGLQAEDEADYYCATADQRGIVFGGGTKLTVLG
binds: human CXCR2 [1] | [2] | [3] | [4]

B2: CX2-Mab #7 (antibody, IgG1, V domains shown)
VH: QVQLLESGGGLVQPGGSLRLSCAASGFTFSRYWMSWVRQAPGKGLEWVSVISYSGSETYYADSVKGRFTISRDNSKNTLYLQMNSLRAEDTAVYYCARGRAYGYFDPWGQGTLVTVSS
VL: DIVLTQPPSVSGAPGQRVTISCSGSSSNIGKKTVSWYQQLPGTAPKLLIYRNNQRPSGVPDRFSGSKSGTSASLAITGLQAEDEADYYCQSTDSTTEIVFGGGTKLTVLG
binds: [5] | [6] | [7] | human CXCR2 [8]

B3: CX2-Mab #8 (antibody, IgG1, V domains shown)
VH: QVQLVQSGAEVKKPGESLKISCKGSGYSFTNYWIAWVRQMPGKGLEWMGIIDPSNSDTRYSPSFQGQVTISADKSISTAYLQWSSLKASDTAMYYCARGRYYGFFDYWGQGTLVTVSS
VL: DIVLTQPPSVSGAPGQRVTISCSGSSSNIGSTYVSWYQQLPGTAPKLLIYRNNNRPSGVPDRFSGSKSGTSASLAITGLQAEDEADYYCQVRALGTSSVVFGGGTKLTVLG
binds: [5] | [6] | [7] | human CXCR2 [8]
